doi:10.1101/2024.12.10.627789

Target: CAM1
Experiment: ITC

Kd: 255 nM
Substance: CBD peptide of eEF2K
